Reference: the supplement of paper PMC9112550, “Optimization of the antimicrobial peptide Bac7 by deep mutational scanning” (BMC Biology, 2022)
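Further: peptides expressed intracellularly from a pBAD plasmid library in pooled LB shake-flask culture, induced with 0.3% L-arabinose, DNA abundance read by NGS, three biological replicates, DESeq2 with apeglm shrinkage.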

What follows are sequences tested on Escherichia coli TOP10 (assay: shrunken log2 fold change of peptide-encoding DNA abundance (4.5 h post-induction vs induction); higher = less antimicrobial activity (less host growth inhibition)). Details: time post-induction: 4.5 h; library: site-saturation at positions 5, 18, 19, 20.
RRIRQRPPRLPRPRPRPFKEPRP was tested, and the “shrunken log2 fold change” value was 0.343.
For RRIRCRPPRLPRPRPRPHGIPRP, the “shrunken log2 fold change” value was -0.0487.
With RRIRSRPPRLPRPRPRPPKGPRP the “shrunken log2 fold change” value was 0.144.
With RRIRTRPPRLPRPRPRPLSQPRP the “shrunken log2 fold change” value was -0.0906.
In the case of RRIRARPPRLPRPRPRPASGPRP, the “shrunken log2 fold change” value is reported as 1.35.
RRIRWRPPRLPRPRPRPAADPRP was tested, and the “shrunken log2 fold change” value was 1.21.
RRIRARPPRLPRPRPRPYALPRP was tested, and the “shrunken log2 fold change” value was 0.0681.
In the case of RRIRDRPPRLPRPRPRPDTRPRP, the “shrunken log2 fold change” value is reported as 0.203.
With RRIRDRPPRLPRPRPRPYIFPRP the “shrunken log2 fold change” value was 3.58.
With RRIRPRPPRLPRPRPRPPHMPRP the “shrunken log2 fold change” value was 0.214.
For RRIRERPPRLPRPRPRPWWTPRP, the “shrunken log2 fold change” value was -0.0694.
In the case of RRIRERPPRLPRPRPRPVGVPRP, the “shrunken log2 fold change” value is reported as 0.0502.
For RRIRWRPPRLPRPRPRPCDAPRP, the “shrunken log2 fold change” value was 0.138.
In the case of RRIRKRPPRLPRPRPRPGKPPRP, the “shrunken log2 fold change” value is reported as 0.115.
For RRIRARPPRLPRPRPRPDRFPRP, the “shrunken log2 fold change” value was 0.414.
For RRIRGRPPRLPRPRPRPKQYPRP, the “shrunken log2 fold change” value was 0.234.
For RRIRVRPPRLPRPRPRPIHVPRP, the “shrunken log2 fold change” value was -0.155.
RRIRTRPPRLPRPRPRPAIVPRP was tested, and the “shrunken log2 fold change” value was 0.00191.
For RRIRVRPPRLPRPRPRPCVPPRP, the “shrunken log2 fold change” value was 0.124.
For RRIRWRPPRLPRPRPRPSLQPRP, the “shrunken log2 fold change” value was 0.0895.
For RRIRPRPPRLPRPRPRPSEMPRP, the “shrunken log2 fold change” value was -0.216.
For RRIRSRPPRLPRPRPRPFQGPRP, the “shrunken log2 fold change” value was -0.0569.
RRIRIRPPRLPRPRPRPAVMPRP was tested, and the “shrunken log2 fold change” value was -0.129.
For RRIRCRPPRLPRPRPRPDYHPRP, the “shrunken log2 fold change” value was -0.903.
For RRIRVRPPRLPRPRPRPLNIPRP, the “shrunken log2 fold change” value was -0.0458.
With RRIRERPPRLPRPRPRPDQYPRP the “shrunken log2 fold change” value was -0.0158.
With RRIRCRPPRLPRPRPRPQFLPRP the “shrunken log2 fold change” value was -0.79.
In the case of RRIRDRPPRLPRPRPRPLPWPRP, the “shrunken log2 fold change” value is reported as 0.572.
For RRIRFRPPRLPRPRPRPDMIPRP, the “shrunken log2 fold change” value was -0.241.
RRIRTRPPRLPRPRPRPPPLPRP was tested, and the “shrunken log2 fold change” value was 0.352.
RRIRVRPPRLPRPRPRPILVPRP was tested, and the “shrunken log2 fold change” value was -0.00597.
For RRIRARPPRLPRPRPRPDHHPRP, the “shrunken log2 fold change” value was -0.201.
RRIRHRPPRLPRPRPRPQIIPRP was tested, and the “shrunken log2 fold change” value was -0.634.
In the case of RRIRFRPPRLPRPRPRPKVWPRP, the “shrunken log2 fold change” value is reported as -0.249.
For RRIRPRPPRLPRPRPRPYWIPRP, the “shrunken log2 fold change” value was -0.509.
For RRIRRRPPRLPRPRPRPLTPPRP, the “shrunken log2 fold change” value was 0.489.
RRIRERPPRLPRPRPRPYIHPRP was tested, and the “shrunken log2 fold change” value was -0.17.
RRIRRRPPRLPRPRPRPLIRPRP was tested, and the “shrunken log2 fold change” value was -0.295.
In the case of RRIRTRPPRLPRPRPRPKCMPRP, the “shrunken log2 fold change” value is reported as -0.134.
For RRIRPRPPRLPRPRPRPNCMPRP, the “shrunken log2 fold change” value was -0.16.
In the case of RRIRRRPPRLPRPRPRPWILPRP, the “shrunken log2 fold change” value is reported as -0.0248.
For RRIRRRPPRLPRPRPRPCPRPRP, the “shrunken log2 fold change” value was 0.0796.
For RRIRMRPPRLPRPRPRPPFIPRP, the “shrunken log2 fold change” value was 0.082.
In the case of RRIRSRPPRLPRPRPRPWDCPRP, the “shrunken log2 fold change” value is reported as -0.00801.
With RRIRQRPPRLPRPRPRPCRAPRP the “shrunken log2 fold change” value was 0.106.
In the case of RRIRVRPPRLPRPRPRPTEKPRP, the “shrunken log2 fold change” value is reported as -0.0708.
With RRIRFRPPRLPRPRPRPGMMPRP the “shrunken log2 fold change” value was -0.216.
For RRIRDRPPRLPRPRPRPLTMPRP, the “shrunken log2 fold change” value was 0.188.
With RRIRMRPPRLPRPRPRPDKSPRP the “shrunken log2 fold change” value was 0.283.
RRIRIRPPRLPRPRPRPCIIPRP was tested, and the “shrunken log2 fold change” value was -0.467.
For RRIRTRPPRLPRPRPRPIERPRP, the “shrunken log2 fold change” value was 0.107.
RRIRARPPRLPRPRPRPLKRPRP was tested, and the “shrunken log2 fold change” value was 0.37.
With RRIRCRPPRLPRPRPRPSNQPRP the “shrunken log2 fold change” value was -0.414.
RRIRRRPPRLPRPRPRPGVIPRP was tested, and the “shrunken log2 fold change” value was -0.0223.
For RRIRIRPPRLPRPRPRPFFDPRP, the “shrunken log2 fold change” value was -0.417.
With RRIRERPPRLPRPRPRPWKQPRP the “shrunken log2 fold change” value was -0.0582.
With RRIRCRPPRLPRPRPRPKKSPRP the “shrunken log2 fold change” value was -0.0331.
For RRIRQRPPRLPRPRPRPMQEPRP, the “shrunken log2 fold change” value was 0.0325.
With RRIRSRPPRLPRPRPRPRCIPRP the “shrunken log2 fold change” value was -0.155.
In the case of RRIRQRPPRLPRPRPRPLSGPRP, the “shrunken log2 fold change” value is reported as -0.252.
For RRIRLRPPRLPRPRPRPHGEPRP, the “shrunken log2 fold change” value was 0.191.
With RRIRYRPPRLPRPRPRPFDKPRP the “shrunken log2 fold change” value was -0.0924.
In the case of RRIRLRPPRLPRPRPRPFLFPRP, the “shrunken log2 fold change” value is reported as -0.34.
With RRIRQRPPRLPRPRPRPTYMPRP the “shrunken log2 fold change” value was -0.106.
In the case of RRIRSRPPRLPRPRPRPCEWPRP, the “shrunken log2 fold change” value is reported as 0.0266.
In the case of RRIRQRPPRLPRPRPRPGGKPRP, the “shrunken log2 fold change” value is reported as -0.0313.
With RRIRERPPRLPRPRPRPQIVPRP the “shrunken log2 fold change” value was -0.108.
In the case of RRIRMRPPRLPRPRPRPKPPPRP, the “shrunken log2 fold change” value is reported as 1.64.
RRIRSRPPRLPRPRPRPPIPPRP was tested, and the “shrunken log2 fold change” value was 0.0379.
In the case of RRIRSRPPRLPRPRPRPITDPRP, the “shrunken log2 fold change” value is reported as -0.0789.
For RRIRFRPPRLPRPRPRPFWCPRP, the “shrunken log2 fold change” value was -0.27.
RRIRFRPPRLPRPRPRPADQPRP was tested, and the “shrunken log2 fold change” value was -0.144.
RRIRNRPPRLPRPRPRPSEMPRP was tested, and the “shrunken log2 fold change” value was -0.0844.
In the case of RRIRHRPPRLPRPRPRPMNLPRP, the “shrunken log2 fold change” value is reported as -0.0351.
With RRIRFRPPRLPRPRPRPMHRPRP the “shrunken log2 fold change” value was -0.0791.
